Experimental data as given in patent US20040208887A1.

Key:
[1] = biological target: recombinant E1/E2 heterodimer protein (genotype 1a) (hepatitis C virus genotype 1a) (UniProt P26664); assay: ELISA, E1/E2 heterodimer coated; control Fab
[2] = biological target: recombinant soluble HCV E1 protein (hepatitis C virus); assay: ELISA, recombinant E1 captured on GNA lectin; control Fab
BSA (Sigma) = BSA (Sigma) (UniProt P02769); assay: ELISA, BSA coated as negative control antigen; control Fab
BSA (Sigma), sequence (P02769 25-607 limits assumed): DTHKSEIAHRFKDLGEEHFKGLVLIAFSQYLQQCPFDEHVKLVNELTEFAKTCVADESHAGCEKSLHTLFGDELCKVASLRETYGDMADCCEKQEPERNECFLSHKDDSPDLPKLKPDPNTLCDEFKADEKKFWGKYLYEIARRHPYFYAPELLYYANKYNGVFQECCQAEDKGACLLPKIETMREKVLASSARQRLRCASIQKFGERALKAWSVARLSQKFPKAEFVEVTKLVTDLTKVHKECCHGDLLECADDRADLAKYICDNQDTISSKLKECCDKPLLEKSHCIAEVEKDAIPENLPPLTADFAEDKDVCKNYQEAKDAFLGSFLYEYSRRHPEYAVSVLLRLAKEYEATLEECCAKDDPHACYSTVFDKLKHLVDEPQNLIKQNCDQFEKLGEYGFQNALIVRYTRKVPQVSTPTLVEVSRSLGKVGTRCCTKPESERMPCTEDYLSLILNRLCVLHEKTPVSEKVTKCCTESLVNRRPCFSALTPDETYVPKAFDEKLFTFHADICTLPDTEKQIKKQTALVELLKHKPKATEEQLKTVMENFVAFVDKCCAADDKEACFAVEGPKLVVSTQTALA

recombinant E1/E2 heterodimer protein (genotype 1a) (hepatitis C virus genotype 1a), sequence (P26664 192-383 limits assumed, chain 1 of 2): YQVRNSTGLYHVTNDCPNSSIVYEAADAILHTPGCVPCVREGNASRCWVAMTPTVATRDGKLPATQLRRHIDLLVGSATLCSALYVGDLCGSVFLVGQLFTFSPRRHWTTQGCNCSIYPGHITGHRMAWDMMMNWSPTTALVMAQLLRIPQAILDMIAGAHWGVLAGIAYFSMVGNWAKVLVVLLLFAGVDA
recombinant E1/E2 heterodimer protein (genotype 1a) (hepatitis C virus genotype 1a), sequence (P26664 384-746 limits assumed, chain 2 of 2): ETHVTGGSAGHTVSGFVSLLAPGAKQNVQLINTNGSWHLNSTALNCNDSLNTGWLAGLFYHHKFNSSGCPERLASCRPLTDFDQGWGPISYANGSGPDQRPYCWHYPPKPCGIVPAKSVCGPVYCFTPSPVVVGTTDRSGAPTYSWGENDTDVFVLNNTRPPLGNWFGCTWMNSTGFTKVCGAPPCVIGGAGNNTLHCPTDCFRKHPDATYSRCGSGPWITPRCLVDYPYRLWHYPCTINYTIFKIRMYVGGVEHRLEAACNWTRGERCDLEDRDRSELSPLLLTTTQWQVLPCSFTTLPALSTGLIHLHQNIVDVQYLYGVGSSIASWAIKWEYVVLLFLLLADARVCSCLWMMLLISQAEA

non-specific Fab showed an OD405 nm [1] of 0.11 OD405 nm, an OD405 nm [2] of 0.2 OD405 nm and an OD405 nm (BSA (Sigma)) of 0.14 OD405 nm.
